Data as given in patent publication US20250215100A1 (HARBOUR BIOMED SHANGHAI, published 2025).
Changes are numbered by the printed parent chain. Names may count otherwise.

B1: PR006239 (antibody, human IgG1, kappa)
heavy: QVQLVQSGAEVKKPGASVKVSCKASGYTFAGYYMYWVRQAPGQGLEWMGWINPDSGAPTYAQKFQGRVTMTRDTSISTAYMELSRLRSDDTAVYYCAREKIYYGSGNYYPSFDYWGQGTLVTVSSASTKGPSVFPLAPSSKSTSGGTAALGCLVKDYFPEPVTVSWNSGALTSGVHTFPAVLQSSGLYSLSSVVTVPSSSLGTQTYICNVNHKPSNTKVDKKVEPKSCDKTHTCPPCPAPEAAGAPSVFLFPPKPKDTLMISRTPEVTCVVVDVSHEDPEVKFNWYVDGVEVHNAKTKPREEQYNSTYRVVSVLTVLHQDWLNGKEYKCKVSNKALPAPIEKTISKAKGQPREPQVYTLPPSREEMTKNQVSLTCLVKGFYPSDIAVEWESNGQPENNYKTTPPVLDSDGSFFLYSKLTVDKSRWQQGNVFSCSVMHEALHNHYTQKSLSLSPGK
light: DIQLTQSPSFLSASVGDRVTITCRASQGISSYLAWYQQKPGKAPKLLIYAASTLQSGVPSRFSGSGSGTEFTLTISSLQPEDFATYYCQQLNSYPWTFGQGTKVEIKRTVAAPSVFIFPPSDEQLKSGTASVVCLLNNFYPREAKVQWKVDNALQSGNSQESVTEQDSKDSTYSLSSTLTLSKADYEKHKVYACEVTHQGLSSPVTKSFNRGEC
notes: Variable regions of PR003379 on human IgG1 with L234A, L235A, G237A; no mutation in the variable region
B2: PR006501 (antibody, human IgG1, kappa, V domains shown)
VH: QVQLVQSGAEVKKPGASVKVSCKASGYTFAGYYMYWVRQAPGQGLEWMGWINPDSGAPTYAQKFQGRVTMTRDTSISTAYMELSRLRSDDTAVYYCAREKIYYGSGNYYPSFDYWGQGTLVTVSS
VL: DIQLTQSPSFLSASVGDRVTITCRASQGISSYLAWYQQKPGKAPKLLIYAASTLQSGVPSRFSGSGSGTEFTLTISSLQPEDFATYYCQQLQSYPWTFGQGTKVEIKR
notes: PR003379 variant L:N92Q; human IgG1 L234A, L235A, G237A
B3: PR006492 (antibody, human IgG1, kappa, V domains shown)
VH: B2 VH
VL: B2 VL with Q92E
notes: PR003379 variant L:N92E; human IgG1 L234A, L235A, G237A
B4: PR006516 (antibody, human IgG1, kappa, V domains shown)
VH: B2 VH
VL: B2 VL with Q92N, S93H
notes: PR003379 variant L:S93H; human IgG1 L234A, L235A, G237A
B5: PR006506 (antibody, human IgG1, kappa, V domains shown)
VH: B2 VH
VL: B2 VL with Q92N, S93F
notes: PR003379 variant L:S93F; human IgG1 L234A, L235A, G237A
B6: PR006507 (antibody, human IgG1, kappa, V domains shown)
VH: B2 VH
VL: B2 VL with Q92N, S93E
notes: PR003379 variant L:S93E; human IgG1 L234A, L235A, G237A
B7: PR006494 (antibody, human IgG1, kappa, V domains shown)
VH: B2 VH
VL: B2 VL with Q92T
notes: PR003379 variant L:N92T; human IgG1 L234A, L235A, G237A
B8: PR006505 (antibody, human IgG1, kappa, V domains shown)
VH: B2 VH
VL: B2 VL with Q92N, S93I
notes: PR003379 variant L:S93I; human IgG1 L234A, L235A, G237A
B9: PR006514 (antibody, human IgG1, kappa, V domains shown)
VH: B2 VH
VL: B2 VL with Q92N, S93V
notes: PR003379 variant L:S93V; human IgG1 L234A, L235A, G237A
B10: PR006512 (antibody, human IgG1, kappa, V domains shown)
VH: B2 VH
VL: B2 VL with Q92N, S93T
notes: PR003379 variant L:S93T; human IgG1 L234A, L235A, G237A
B11: PR006503 (antibody, human IgG1, kappa, V domains shown)
VH: B2 VH
VL: B2 VL with Q92G
notes: PR003379 variant L:N92G; human IgG1 L234A, L235A, G237A
B12: PR006509 (antibody, human IgG1, kappa, V domains shown)
VH: B2 VH
VL: B2 VL with Q92N, S93L
notes: PR003379 variant L:S93L; human IgG1 L234A, L235A, G237A
B13: PR006513 (antibody, human IgG1, kappa, V domains shown)
VH: B2 VH
VL: B2 VL with Q92N, S93Q
notes: PR003379 variant L:S93Q; human IgG1 L234A, L235A, G237A
B14: PR006493 (antibody, human IgG1, kappa, V domains shown)
VH: B2 VH
VL: B2 VL with Q92L
notes: PR003379 variant L:N92L; human IgG1 L234A, L235A, G237A
B15: PR001303 (APX005) (antibody, human IgG1, kappa)
heavy: not shown
light: DIQMTQSPSSLSASVGDRVTIKCQASQSISSRLAWYQQKPGKPPKLLIYRASTLASGVPSRFSGSGSGTDFTLTISSLQPEDVATYYCQCTGYGISWPIGGGTKVEIKRTVAAPSVFIFPPSDEQLKSGTASVVCLLNNFYPREAKVQWKVDNALQSGNSQESVTEQDSKDSTYSLSSTLTLSKADYEKHKVYACEVTHQGLSSPVTKSFNRGEC
notes: CD40 positive control antibody

How the values were obtained:
[1] = biological target: T1, human CD40 on cells (human, UniProt P25942 21-277); assay: cell-based or functional assay
[2] = biological target: T2, cynomolgus monkey CD40 on cells (cynomolgus monkey, UniProt G7PG38 21-278); assay: FACS, CHO-K1/cyCD40 cells
T2 construct: also called cyCD40; CHO-K1/cyCD40
Text: (§1) Flow cytometry (FACS) was used to detect the binding ability of the CD40 antibody to cells, such as, CHO-K1/hCD40 highly expressing human CD40 (constructed by Beijing Kyinno Biotechnology), CHO-K1/cyCD40 highly expressing cynomolgus monkey CD40 (constructed by Beijing Kyinno Biotechnology) and lymphoma cell highly expressing human CD40, Raji (ATCC, #CCL-86). Specifically, the cells were digested and resuspended with complete medium (F-12K for CHO-K1 cells; and RPMI-1640 for Raji cells); and the cells were adjusted to a cell density of 1×10⁶ cells/mL. The cells were seeded in a 96-well V-bottom plate (Corning, #3894) at 100 μL/well, and the antigen binding protein to be tested at 2x final concentration was then added at 100 μL/well and mixed evenly, with the highest final concentration of the antigen binding protein of 300 nM, a total of 8 concentrations, and 5-fold concentration gradient dilution. hIgG (Crownbio, #C0002) was used as a negative control, and the positive control molecule was the molecule in Table 1-5. The cells were incubated at 4° C. for 1 hours in the dark. After the incubation, the cells were rinsed twice by adding pre-chilled PBS at 100 μL/well, and centrifuged at 500 g at 4° C. for 5 minutes, and the supernatant was discarded. Then, a fluorescent secondary antibody (goat anti-human IgG (H+L) secondary antibody, Alexa Fluor® 488 conjugate, Invitrogen, #A11013, 1:1000 dilution) was added at 100 µL/well, and the cells were incubated at 4° C. for 30 minutes in the dark. The cells were washed twice with pre-chilled PBS at 200 μL/well, and centrifuged at 500 g at 4° C. for 5 minutes, and the supernatant was discarded. Finally, the cells were resuspended in pre-chilled PBS at 200 μL/well. The fluorescence signal values were read using a BD FACS CANTOII flow cytometer or ACEA NovoCyte flow cytometer, and the data were processed and analyzed using FlowJo v10 software (FlowJo, LLC).
(§2) Data processing and graphical analysis were performed using GraphPad Prism 8 software. The binding curve of the antibody to the target cell and parameters, such as EC50 value were obtained by four-parameter nonlinear fitting.

[3] = biological target: T1, human CD40 on cells; assay: FACS, Raji cells
Text: as §1, §2

[4] = biological target: T1, human CD40 on cells; assay: FACS, CHO-K1/hCD40 cells
Text: as §1, §2

T2 sequence (G7PG38 entry or part of it limits assumed): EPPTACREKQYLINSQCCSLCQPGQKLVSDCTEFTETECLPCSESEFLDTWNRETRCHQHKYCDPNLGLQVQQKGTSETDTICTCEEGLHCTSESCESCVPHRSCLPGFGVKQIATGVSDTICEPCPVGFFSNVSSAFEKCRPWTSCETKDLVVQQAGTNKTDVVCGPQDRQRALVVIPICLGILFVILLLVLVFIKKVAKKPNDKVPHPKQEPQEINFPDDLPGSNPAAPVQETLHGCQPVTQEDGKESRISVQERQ
T1 sequence (P25942 21-277): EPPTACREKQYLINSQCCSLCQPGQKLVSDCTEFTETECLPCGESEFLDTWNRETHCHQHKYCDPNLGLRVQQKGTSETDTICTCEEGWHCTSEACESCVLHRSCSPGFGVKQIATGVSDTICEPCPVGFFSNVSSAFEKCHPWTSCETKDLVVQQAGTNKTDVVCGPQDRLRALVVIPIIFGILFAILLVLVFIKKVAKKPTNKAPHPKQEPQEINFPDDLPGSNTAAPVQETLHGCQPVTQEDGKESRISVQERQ

Row | Binder | EC50 (nM), crosslinked, HEK293-hCD40-NFkB reporter [1] [nM] | EC50 (nM), uncrosslinked, HEK293-hCD40-NFkB reporter [1] [nM] | Fold (EC50 in the absence of crosslinking/EC50 in the presence of crosslinking) [1] [fold] | Maximum fold (fold), crosslinked [1] [fold] | Maximum fold (fold), uncrosslinked [1] [fold] | EC50 [2] [nM] | Maximum MFI [2] [MFI] | EC50 [3] [nM] | Maximum MFI [3] [MFI] | EC50 [4] [nM] | Maximum MFI [4] [MFI]
1 | B1 | 0.098 | 0.173 | 1.77 | 5.76 | 4.58 | 4.41 | 51800 | 0.332 | 9050 | 6.67 | 88600
2 | B2 | – | – | – | – | – | 4.19 | 48200 | 0.352 | 9000 | 5.29 | 91000
3 | B3 | – | – | – | – | – | 6.26 | 52200 | 0.418 | 9070 | 8.87 | 92300
4 | B4 | – | – | – | – | – | 5.29 | 51400 | 0.351 | 8900 | 5.08 | 86100
5 | B5 | – | – | – | – | – | 4.5 | 47300 | 0.388 | 12100 | 5.85 | 82800
6 | B6 | – | – | – | – | – | 5.01 | 49300 | 0.384 | 12300 | 5.58 | 81800
7 | B7 | – | – | – | – | – | 4.04 | 49600 | 0.328 | 9180 | 8.73 | 98800
8 | B8 | – | – | – | – | – | 4.62 | 48100 | 0.336 | 11900 | 6.08 | 82700
9 | B9 | – | – | – | – | – | 4.23 | 45100 | 0.455 | 12000 | 5.08 | 86900
10 | B10 | – | – | – | – | – | 4.55 | 45800 | 0.424 | 12100 | 5.18 | 81600
11 | B11 | – | – | – | – | – | 3.99 | 49600 | 0.333 | 12200 | 6.07 | 84500
12 | B12 | – | – | – | – | – | 4.69 | 45300 | 0.371 | 12200 | 5.51 | 79600
13 | B13 | – | – | – | – | – | 3.56 | 40200 | 0.373 | 12000 | 7.51 | 89200
14 | B14 | – | – | – | – | – | 4.06 | 48900 | 0.377 | 9350 | 5.26 | 83400
15 | B15 | – | – | – | – | – | 4.72 | 93600 | 0.0347 | 2790 | 2.83 | 26000
